The values that follow come from patent publication US10941197 (dated 2021).

Positions count from the first letter of the chain named.

Sequences and labels used below:
T1: human OSM (human)
T1 chain: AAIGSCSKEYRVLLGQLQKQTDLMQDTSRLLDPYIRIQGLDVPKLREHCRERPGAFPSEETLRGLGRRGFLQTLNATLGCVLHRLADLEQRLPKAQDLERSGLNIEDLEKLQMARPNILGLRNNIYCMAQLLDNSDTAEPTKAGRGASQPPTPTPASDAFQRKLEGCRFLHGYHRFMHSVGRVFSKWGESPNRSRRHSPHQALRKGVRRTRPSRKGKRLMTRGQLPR

T2: cyno OSM (cynomolgus)
T2 chain: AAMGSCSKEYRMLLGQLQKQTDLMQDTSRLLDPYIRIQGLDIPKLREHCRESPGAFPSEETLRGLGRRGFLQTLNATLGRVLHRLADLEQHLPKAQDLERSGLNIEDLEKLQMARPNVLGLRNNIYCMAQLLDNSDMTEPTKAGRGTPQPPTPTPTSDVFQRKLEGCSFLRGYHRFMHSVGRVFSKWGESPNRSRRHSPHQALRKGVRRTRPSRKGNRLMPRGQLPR

B1: M71 (designed binder)
chain 1: EVQLVQSGAEVKKPGESLKISCKGSGYSFTSYWISWVRQMPGKGLEWMGIIYPGDSYTRYSPSFQGQVTISADKSISTAYLQWSSLKASDTAMYYCARVPVSPAYLDY
chain 2: not shown
B2: M69 (designed binder)
chain 1: B1 chain 1
chain 2: not shown
B3: M55 (designed binder)
chain 1: B1 chain 1 with V99G, P100S, S102F, P103E, L106F
chain 2: not shown
B4: M54 (designed binder)
chain 1: B1 chain 1 with V99G, P100S, S102F, P103E, L106F
chain 2: not shown
B5: M42 (designed binder)
chain 1: B1 chain 1 with V99G, P100S, S102F, P103E, L106F
chain 2: not shown
B6: M64 (designed binder)
chain 1: B1 chain 1
chain 2: not shown

For one experiment, the target named is T1, human OSM. Briefly: SPR. On the technique in general: SPR reads the build-up and loss of mass on a sensor chip optically.
As usually defined, the Kd is the constant that tells how readily two partners part at equilibrium. A high value points to lower affinity. For the molecule B1, the Kd came out at 0.105 nM.

In turn, B2 registered a Kd of 0.045 nM.

The molecule B3 yielded a Kd of 0.054 nM.

Molecule B4 had a Kd of 0.053 nM.

In turn, B5 had a Kd of 0.484 nM.

In turn, B6 registered a Kd of 0.095 nM.

For a further experiment, the target named is T2, cyno OSM. Description: SPR.
The molecule B1 registered a dissociation constant (Kd) of 0.108 nM.

In turn, B2 registered a Kd of 0.062 nM.

The molecule B3 had a Kd of 0.058 nM.

Regarding B4, the Kd is 0.057 nM.

In the case of B5, the Kd was 0.516 nM.

On to B6, for which the Kd was 0.023 nM.
